In the supplement of paper PMC9942255:
Several values for one entry are separate records, joined by “and”; a condition that tells them apart may be missing. Identical values can stand only once.

Test system: Bacillus subtilis DB104 (SP-AmyQ fusion secretion)
Assay: AmyQ secretion efficiency, weighted average sort bin (1 = best secretion, 10 = worst) (bin number (weighted average, 1-10)); higher = lower secretion efficiency
Outline: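 The secretion score was taken as the read-frequency-weighted mean bin number, normalised to beads per bin, with low-abundance sequences excluded. Bins came from large-particle flow cytometry sorting of occupied alginate beads (~65 nL, about 0.3 cells each, with fluorescein-starch) into 10 equally populated groups by green/red fluorescence ratio after about 13 h at room temperature and nile red staining. The cells were a B. subtilis DB104 library with mature AmyQ fused to designed signal peptides, integrated at amyE, and each bin's amplicons were Illumina-sequenced.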

Row | Sequence | AmyQ secretion efficiency
1 | MHLIRAAGAVCLAVVLIAGCRFNEDQHQAEGENT | 5.94 and 6.42
2 | MHLIRAAGAVCLAVVLIAGCRFNEDQHQAEGRRR | 5.26
3 | MHLIRAAGAVCLAVVLIAGCRFNEDQHQAEHENT | 3.89
4 | MHLIRAAGAVCLAVVLIAGCRFNEDQHQAELENT | 6.53
5 | MHLIRAAGAVCLAVVLIAGCRFNEDQHQAEMENT | 6.08
6 | MHLIRAAGAVCLAVVLIAGCRFNEDQHQAENENT | 5.95
7 | MHLIRAAGAVCLAVVLIAGCRFNEDQHQAEPENT | 6.25
8 | MHLIRAAGAVCLAVVLIAGCRFNEDQHQAESENT | 3.48
9 | MHLIRAAGAVCLAVVLIAGCRFNEDQHQAEWENT | 6.12
10 | MHLIRAAGAVCLAVVLIAGCRFNEDQHQFEGENT | 5.53
11 | MHLIRAAGAVCLAVVLIAGCRFNEDQHQFFAEGENT | 4.63
12 | MHLIRAAGAVCLAVVLIAGCRFNEDQHQGEGENT | 6.63
13 | MHLIRAAGAVCLAVVLIAGCRFNEDQHQLEGENT | 6.09
14 | MHLIRAAGAVCLAVVLIAGCRFNEDQHQPEGENT | 5.35
15 | MHLIRAAGAVCLAVVLIAGCRFNEDQHQVEGENT | 4.66
16 | MHLIRAAGAVCLAVVLIAGCRFNEDQHQWEGENT | 5.73
17 | MHLIRAAGAVCLAVVLIAGCRITSIFFNEDQHQAEGENT | 6.96
18 | MHLIRAAGAVCLAVVLIAGCRKKKRKRHRAEGENT | 7.2
19 | MHLIRAAGAVCLAVVLIAGCRKNSVQHQAEGENT | 5.67
20 | MHLIRAAGAVCLAVVLIAGCRKRRRQHQAEGENT | 6.76
21 | MHLIRAAGAVCLAVVLIRFNEDQHQAEGENT | 5.07

Row | Sequence | AmyQ secretion efficiency
22 | MHLIRAKGAVCLAVVLIAGCRFNEDQHQAEGENT | 6.02
23 | MHLIRAKKRKCRAVVLIAGCRFNEDQHQAEGENT | 5.77
24 | MHLIRARRRVCLAVVLIAGCRFNEDQHQAEGENT | 6.03
25 | MHLIRQSQGYCQYTVLIAGCRFNEDQHQAEGENT | 6.47
26 | MHLITAAGAVCLAVVLIAGCRFNEDQHQAEGENT | 5.34
27 | MHQIRAAGAVCLAVVLIAGCRFNEDQHQAEGENT | 6.4
28 | MHRRRKAAGAVCLAVVLIAGCRFNEDQHQAEGENT | 4.73
29 | MIAYFGKCGYKYGRTRLGVLFGMQQANHG | 8.61
30 | MIAYFGKCLLLVTIMFLGVLFGMFATQQANHG | 6.56
31 | MIAYFGKCLLLVTIMFLGVLFGMFQANHG | 6.57
32 | MIAYFGKCLLLVTIMFLGVLFGMHQANHG | 6.41
33 | MIAYFGKCLLLVTIMFLGVLFGMPQANHG | 5
34 | MIAYFGKCLLLVTIMFLGVLFGMQQANHG | 6.54 and 6.99 and 8.58
35 | MIAYFGKCLLLVTIMFLGVLFGMQQGNHG | 5.32
36 | MIAYFGKCLLLVTIMFLGVLFGMQQMNHG | 5.05
37 | MIAYFGKCLLLVTIMFLGVLFGMQQVNHG | 6.78
38 | MIAYFGKCLLLVTIMFLGVLFGMQQYNHG | 6.5
39 | MIAYFGKCLLLVTIMFLGVLFGMSQANHG | 4.69
40 | MIAYFGKCLLLVTIMFLGVLFGMWQANHG | 7.19
41 | MIAYFGKCLLLVTIMFLGVLFTAVVVIAGMQQANHG | 5.06
42 | MIAYFGKCLLLVTIMFLGVLFVMQQANHG | 7.39

Row | Sequence | AmyQ secretion efficiency
43 | MIAYFGKCLLLVTIMFLGVLGMQQANHG | 5.4
44 | MIAYFGKCRKRRKRMFLGVLFGMQQANHG | 7.55
45 | MIAYFGKCRKRRTIMFLGVLFGMQQANHG | 4.01
46 | MIAYFGKCRKTRTIMFLGVLFGMQQANHG | 3.14
47 | MIAYFKCLLLVTIMFLGVLFGMQQANHG | 6.01
48 | MIFTIVVGFLSVLGLAAVFPLTAQAEKA | 2.34
49 | MIIWIYVVLVLSIAGIGGFSVHAASS | 7.11
50 | MIKAAAVLLSLGLVFGFSYGAGHVAEAKTK | 2.3
51 | MIKGIIRFLLVSFVLFFALSTGITGVQAAPA | 2.2
52 | MIKKCSVCLWILVLLLSCLSGKSAYAATS | 2.24
53 | MIKKLAAGLTASAIVGTTLVVTPAEAATI | 2.3
54 | MIKLVLCVSILAVILSGVALTQLS | 7.36
55 | MIKRFSLIMMTGLLFGLTSPAFAAEK | 4.15
56 | MIKVLMAFIICLSLILSVLAAPPSGAKAESV | 1.52
57 | MILANSVSALTPSTTLAITAKAKEL | 8.58
58 | MILITINIITMFIAAAVISLTGTAEAAEK | 4.83
59 | MILKSKLLLSCLALSTVFVATTIANAPTH | 6.38
60 | MILRKVLTGSVLSLGLLVSASPAFATSP | 1.73
61 | MILTKVLTGSVLSLGLLVSASPAFATSP | 1.75
62 | MIMLWRSLALCGLALTLAPCAQAAEP | 4.91
